These results are taken from the DeepSol protein solubility set.

A short description of this data set: soluble on expression in E. coli; label from the status in PepcDB or PDB records.
Regarding “IFFMEAMSPQQETLGGQPGRSSSLTGVSRLAGGSCTKKKMKTLAERRRSAPSLILDKALQKRPTTRDSPSASVDTCTFLSSLVCSNRTLLIDGRAELKRGLQRQERHLFLFNDLFVVAKIKYNNNFKIKNKIKLTDMWTASCVDEVGEGNTNAMKSFVLGWPTVNFVATFSSPEQKDKWLSLLQRYINLEKEKDYPKSIPLKIFAKDIGNCAYSKTITVMNSDTANEVINMSLPMLGITGSERDYQLWVNSGKEEAPYPLIGHEYPYGIKMSHLRDSALLTPGSKDSTTPFNLQEPFLMEQLPREMQCQFILKPSRLAAAQQLSDSGHKTFKRRRSIINWAFWRGSSTHLDNLPSSPTSPMPGQLFGISLPNICENDNLPKPVLDMLFFLNQKGPLTKGIFRQSANVKSCRELKEKLNSGVEVHLDCESIFVIASVLKDFLRNIPGSIFSSDLYDHWVSVMDQGNDEEKINTVQRLLDQLPRANVVLLRYLFGVLHNIEQHSSSNQMTAFNLAVCVAPSILWPPASSSPELENEFTKKVSLLIQFLIENCLRIFGEEITSLFREVSVRCDTRENASDISCFQLNDSSYDSLENELNEDVDAPCSDLVKKLGQGSRSMDSVLTLSDYDLDQPEVEGLLTLSDFDLAHSKDEDVQMKRPLESKPVNILVYTKIPLRDHARAPSAMCTPSYLSTAAANAAKSLRRHRRCSEPSIDYLDSKLSYLREFYQKKLRKSSCDAILSQKDEDYLKQNQPLQEEGKTCFKQSLVTGTDVSKKNATTQNTKKKSLSGSEGNHVKLFPKSKPVAISVASYSPMSSQDHSKNQPFDVNTSGYSPPHTADALKGPRTHRRCSEPNIEDQNRKLTYLRGIYSKKQHKTSCEAGLLHGEEDYLKRHKSLQMEGQKLINQSLVMGIEVGKSSATNQNTEKVLPPRLNLCPRTSYSSLSSPGTSPSGSSVSSQDSAFSQISEHSVFTPTETSSPIDCTFQAQRKREDLSPDFSNASHVSGMPGPSSGQACSRPAYTKKDTMEWHSQMHSVTLHPSTWLRNGVASLKNWSLKKKAKAARPEEEKIASPKGPLEPPPHASGVPEANSLQEEQKDLPLRAAEGLSPVQSAQRCSSSPFQDSERHCSSPFSLVESRLKLCMKSHEEIEPGSQSSSGSLPWERASASSWTLEDATSPDSGPTVVCDIEDRYLTKDI”, the “soluble on expression in E. coli” value is reported as “soluble”. In the case of “MYEYLLLTRKNALFSLAINEPSPTFALTIIAIFSSTNVRSSVVRLGCFRVEICCTCHTQYLKLEIMVIISYLKYVNLPCSFIFISNSFALVFKISAEV”, the “soluble on expression in E. coli” value is on record as “soluble”.

Turning to “MKIKPVKVESIENPKRFLNSRLLTKIEVEEAIEKALKQLYINIDYFGEEYPTPATFNNIYKVMDNTEWTNGFWTGCLWLAYEYNQDKKLKNIAHKNVLSFLNRINNRIALDHHDLGFLYTPSCTAEYRINGDVKALEATIKAADKLMERYQEKGGFIQAWGELGYKEHYRLIIDCLLNIQLLFFAYEQTGDEKYRQVAVNHFYASANNVVRDDSSAFHTFYFDPETGEPLKGVTRQGYSDESSWARGQAWGIYGIPLSYRKMKDYQQIILFKGMTNYFLNRLPEDKVSYWDLIFTDGSGQPRDTSATATAVCGIHEMLKYLPEVDPDKETYKYAMHTMLRSLIEQYSNNELIAGRPLLLHGVYSWHSGKGVDEGNIWGDYYYLEALIRFYKDWELYW”, the “soluble on expression in E. coli” value is “soluble”.

Take “MSLGELPPAPSDSKRTVFLDIDETLVHVTPYPLPFVKPDATFLLQEHRRPSDPPGVSPEYLPGVSAGAAPRAALLHVYYRPFLMPFLENLLQTNRCELVAFTAALREYADPILDGIETKLGGARGSVFAARLYRQHCARAPRSKDLVHAAPSRCLSRCVLLDNSVVSLAAQLANGLLLRPFYGDPQDRELEGVLAFLLDLLEKTGDIRESMKESGMLHKVTEGHHHHHH”: the “soluble on expression in E. coli” value is “not soluble”. Take “MFVVPRRLSSFLSLVHEYRHLARRSYVMETPSIDIQNIRAKYLNSHDPYLLESKLPTTSPFELFDIWFRNVASQSDLTFEEINAVSLSTVGKDLRPSSRMVLLKAYTPTGFSFYTNYTSRKGNQLEENPNAAMLFYWPKVNRQIRVEGVVEKLPDEMAVAYWNSRPVASRIGSKSSDQSKVVPDREFLESKKVALTELSVREGAQAITKPESWGGYHLIPRYFEFWQGQSDRLHDRIVFERDVDVWLLKRLSP”: the “soluble on expression in E. coli” value is listed as “not soluble”.

With “WIRTGDGVRLRTVVWPEGAAGTVLIFSGRTEYAEKYGPAAEALRRRGFASATLDWRGQGLSDRSLRDPLVGHVDDFASYQQDVTAFVAALRAQGLPEPFHLLAHSMGGCIGLRALHEGLPVRAACFSAPMWGIRVHAALRIVAAALGALARATGLGHRYVPGTGTRSYVATAAFDTNVLTRDPEMFAWMQEQLVQAPELGLAGPSLDWLRAAFEETARLKRLPAPDLPALCIVGSAEKVVDLEEIQRRMEGWGRGELQIVPGAEHEVMMDRPEVRDAFFDAA”, the “soluble on expression in E. coli” value is “not soluble”.
